Test: soluble fraction after stress (log2 fold change); higher = more stays soluble; pooled small domains, quantitative proteomics
Conditions: stress: 75 degC
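Further: 20 min heating vs room temperature control held 20 min.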

Sequence | soluble fraction (log2)
HMDEFTIILEDAGSQKIAVIKEVRVLNSSLGLKEAKDLVDATPATIMEKADKATADKAKAAFEAAGAKVTI | -0.257
HMDEIDYSKYSITTSNRIINIDGVQSKVELFDVSGRSIQSTMVTGKFSSRPLNAGFYIIHVDGYSVKVSV | -1.19
HMDELIKQVANYIINNRATINETAGAFGKSVSSIKKYINDADKLQRIDFELYQKVKEVQKIVELNGQI | -0.396
HMDEMEFQKYVDQNLKQKGISLTAEAKAELLLRLGGDTMLLHSAIEKLDLYGEKNLNLNDIKHLVSLNSDV | 0.254
HMDENMQRYNTMEEIKKEFPYAEDTVRKLIAMGAIRGGGKVDANGDPADMDLSRDMLRMMVFNDRAGAYG | 0.524
HMDEPGTGFKWREDVLLRVMEANGIDTSHRDDFVRHAVKFDNDDNLYLKKAEIEDAAAAWVSEHS | 0.161
HMDERLAKLTPQERKILDLIAEGATNRQIGTELHLAEKTVKNYVSNMLMKLGMSRRTEAAVFAVKASIN | -1.9
HMDERLLRLYERELQFLREGADEFAQAYPKVAGHLGLNSQSMGDPFIERLLEGLGFLTARIQLQLESEF | -0.47
HMDEWFPVNDDYKFMVGDEVRTPDGLVKVVATHNDSATFYGKIITPIHDDVLKGETYEYRSYEAQVLA | -0.331
HMDEWKRKELWDAIARLPKIQRMVVTMRTTENLPYKEIAKIMNISENSAKVNYHHAVEALKIFF | -2.84
HMDEYGEVQALQRAGQTSEALARADRHIAAHPNDPQMRFVKANLLSAGGRAGEAETLLVQLTRD | -0.0543
HMDFDLIAIFEEQFARALSPIEINIIKEWKNSNYSDDMIVKALKEAVKSQVFNFRYIERILINWSQNG | -1.9
HMDFDVELTSAGTAKVKVIKAVREATGLGLKEAKDLVDNAPSIVKEGLDEAAANDLKAALEETGASVTL | 0.0189
HMDFEEGAVKWFNTKKGYGFITRDQGDDIFVHFRNIKAQSRRSLTDGERVTFVVTEGDKGLQADHVSPV | -0.411
HMDFGHWAAHKLEQMSEYRLRHGEAVAIGIALDVLYSVRQGLLARPAAERILSLLERLGFTLFDPELKS | 0.224
HMDFLKSVDLSKYSKVESLILSHLSKGDFDIDDFIRSFSLGTDEVTRAIVSLEIEGIILRKGNRIFRKKS | -1.38
HMDFMNSEIKKIVEDLKLTLQSLNYTKNEIKSILPVINKETDNLIKKEKYASFENLLRLAMNHLDNN | -0.751
HMDFTPDQIARLDDIISRYKDKPGGLIPVLEEAQVALEYLPIGVQKRIAKGLNLPLSRVYGVVTFYSFFTM | -0.0122
HMDFVKGDTVVFIDAFMPDHLMTIHKVQGEGILLDGNHKFALAHLIRHASTVELNAKRRLSLTEQS | -2.42

Sequence | soluble fraction (log2)
HMDGASLLDIDGDGKVTPTIDGLLLMRWQFGTRGAALIGGISFPAGALRTTVNAIELHMRRLSETT | -0.699
HMDGDVAVKGGDGVLEVRLANAANVRVYNLAGRLMADYTGTELHMPLPKGVYMVVAGDNRTKVVV | -0.476
HMDGEINPYTGREYVTNSVRMHPRRIGYVQVYSRKDHKWTDMTEWAFLGEQERKKVLLGKAYEPPVYL | -1.91
HMDGEMRRKRILQLLSEQTKPLSGTALAKQFGVSRQVIVQDIALLKSKEPAIISTYRGYVLGR | -1.25
HMDGFAEFWSAYPKKVGKGAAEASWRKHRPPLQTVLDAVKRQAESDQWRKDGGQFIPNPATWLNQKRWEDD | -0.0375
HMDGIIIPDVSGKSYAEAVATLNEKGFKVEKGEDAGSSLAKDLVSYTNPAAGNRAKSGATISVFVSTGANA | 0.407
HMDGKTALQEIVASSGWSPPEYKVSESGPDHDKDFVAYAIVNGVAYPEGHGKSKREAEQVAARIAFEALSK | -0.0295
HMDGMRASDMVRAALAGAGKTQKELAEHMGWTPQNLSGRLKNNSLTFDELSKALHFAGYEVSMSDANGAG | 0.0394
HMDGNVPSVEGKPLSGAKYILETYGYKTGTVTEVNSEDVPAGIVISQNPARGTTLANGGSVNLQVSLG | 0.645
HMDGPGAGGRFLAEDLGTGKMTLEALQRHYVTLVYSRTGKYEETARRLEIDRRTVKKYLDEELLAELRET | 0.0914
HMDGQGIRSITPEYYLSDSATKMPDASSSGWKSVPDDYIDKHYYWVRSKILWDDGTYTTTTPVL | -0.17
HMDGRVQATAEKLRAALDRLARSSVGSPMIERQLTVAALAREARVGRNAIYANHRDILDELIRVRQQRRA | 0.155
HMDGTAKVAHMLVNELETFNRLKKHEIAYMLHIQPETLSRILNKLTRNGTIEIEKNSVVILNIQELKEIY | -1.95
HMDGVNRDKIEYRLDDLYYLKGSDAPYTGKVFEEWSGQQRVETNYIDGKLDGLSESWHENGQKASEVNY | 0.486
HMDHFLRRFQVEGLNLEKLLRLAAEREMDLLQVRRSGRRMTGLVAEKRLPELEELAAQGGWALRLGEY | -0.843
HMDHSSLIKKLRLERGLSQKKLAQGISQRSTLASFENNATKISYNILIQYLDRMNVTLEEYQFMLDGNNL | -2.27
HMDHWQSVNSALELLEVSRRTLYDYISRKKLQTKKEGKYRYVWIDDDVIEEIKTSKSAYIEINN | -2.21
HMDIAATTVKQKIRTLLADEDAARPLSDQKIADALAEDGIDVARRTVAKYREELGIEPSWARKR | 0.106
HMDIDLGAVEEQAVKGSGPGGQKMNKTSSGVLLRYRLGEELVLVKWTRERQHSLNRFLALRELVDEIEAR | 0.976

Reference: the domain aggregation screens of Martell et al. (2025)
